{
  "source": "paper PMC11275766",
  "about": "(bioRxiv, 2024)",
  "target": "ancestral SARS-CoV-2 RBD (recombinant, ELISA antigen) (SARS-CoV-2 ancestral (Wuhan-Hu-1/WA.1), UniProt P0DTC2)",
  "experiment": "ELISA",
  "data": [
    {"binder": "M2 mAb (human IgG1) (antibody, V domains shown) VH: QLQESGPGLVKPSEILSLTCSVSGGSINTNMYYWGWIRQPPGKGLEWIGSIYYSGTTYYNPSLKSRVTMSVDTSENQFSLKLTSVTAADTSVYFCARLPLGERIDYWGRGTLVTVSS VL: SSDLTQPPSVSVSPGQTASITCSGNKLGDTYVFWYQQKPGQSPVAVINEDNKRPSGIPERFSGSNSGNTATLTISGTQTMDEADYYCQVWDSSQMVFGGGTKLTVL", "values": [
      {"measurement": "binding result", "result": "no binding (tested: 30 μg/mL)"}
    ]}
  ]
}
